{
  "source": "patent US20030233681",
  "about": "“ICE1, a regulator of cold induced transcriptome and freezing tolerance in plants” (Arizona Bd of Regents/Behalf of Univ. of Arizona, published 2003)",
  "binders": {"B1": {"name": "MYC-2 (dsDNA)", "DNA 1": "CTCTGGACACATGGCAGATC", "DNA 2": "GATCTGCCATGTGTCCAGAG"}, "B2": {"name": "MYC-4 (dsDNA)", "DNA 1": "ACAATTACAACTGCATGCTT", "DNA 2": "AAGCATGCAGTTGTAATTGT"}, "B3": {"name": "MYC-3 (dsDNA)", "DNA 1": "AATGTTACATTTGATCATTC", "DNA 2": "GAATGATCAAATGTAACATT"}, "B4": {"name": "MYC-1 (dsDNA)", "DNA 1": "CATTTTACAATTGCTTCGCT", "DNA 2": "AGCGAAGCAATTGTAAAATG"}, "B5": {"name": "P2 (-909 to -890) (dsDNA)", "DNA 1": "GACTCGTTTCGCGATCCGAT", "DNA 2": "ATCGGATCGCGAAACGAGTC"}, "B6": {"name": "P1 (-949 to -930) (dsDNA)", "DNA 1": "ATATAATTAACTACTTTTAT", "DNA 2": "ATAAAAGTAGTTAATTATAT"}},
  "key": {"ICE1 [1]": {"biological_target": "T1, ICE1 (Arabidopsis thaliana, UniProt Q9LSE2 SEQ:1-494)", "T1 sequence": "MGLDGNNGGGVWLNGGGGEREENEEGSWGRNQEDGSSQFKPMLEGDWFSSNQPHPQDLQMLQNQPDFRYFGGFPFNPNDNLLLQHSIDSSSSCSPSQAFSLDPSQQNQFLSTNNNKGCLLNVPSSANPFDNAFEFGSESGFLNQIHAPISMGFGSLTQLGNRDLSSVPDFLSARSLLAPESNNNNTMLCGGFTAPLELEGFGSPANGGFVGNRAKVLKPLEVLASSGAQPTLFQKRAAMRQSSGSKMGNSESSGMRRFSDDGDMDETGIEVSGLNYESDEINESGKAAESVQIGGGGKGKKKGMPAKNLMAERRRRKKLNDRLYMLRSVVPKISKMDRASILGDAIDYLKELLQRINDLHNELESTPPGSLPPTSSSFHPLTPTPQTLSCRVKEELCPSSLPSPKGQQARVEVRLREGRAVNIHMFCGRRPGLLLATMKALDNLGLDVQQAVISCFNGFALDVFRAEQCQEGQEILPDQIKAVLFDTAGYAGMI", "experiment": "EMSA; one major complex; strongest of the sites by competition; poly(dI-dC), room temperature 20 min", "details": "tags: His tag N-terminal (pET14b, E. coli BL21 DE3); label: 32P", "experimental": "(§1) The wild type and mutant ICE1 cDNAs were amplified by RT-PCR and inserted into NdeI and BamHI sites in the expression vector pET14b (Novagen). Wild-type and mutant His-ICE1 fusion proteins were prepared from E. coli cells (BL21 DE3) according to the instruction manual of His-Bind Buffer Kit (Novagen). The electrophoresis mobility shift assay (EMSA) was carried out as described (Hao et al. 1998). The following double-stranded oligonucleotides listed in FIG. 6A (MYC-1, MYC-2, MYC-3, MYC-4 and MYC-5) were used as probes and competitors in EMSAs. Nucleotide sequences P1 (−949 to −930) and P2 (−909 to −890) were also used as competitors. P1 contains a putative MYB-recognition site. […] DNA probes were end-labeled with [γ-³²P]dCTP using the Klenow fragment and purified through a Sephadex G-50 column. The labeled probes (ca 0.02 pmol) were incubated for 20 min at room temperature with 2.3 μg of purified His-ICE1 fusion protein in 1×binding buffer (Hao et a.1998) supplemented with 20 pmol poly(dI-dC). The resulting DNA-protein complexes were resolved by electrophoresis on a 6% polyacrylamide gel in 0.5×TBE buffer and visualized by autoradiography. For competition experiments, unlabeled competitors were incubated with the His-ICE1 fusion protein on ice for 30 min prior to the addition of labeled probes. […]"}, "ice1 (R236H)": {"biological_target": "T2, ice1 (R236H) (Arabidopsis thaliana, UniProt Q9LSE2 SEQ:1-494, R236H)", "T2 sequence": "T1 sequence with R236H", "experiment": "EMSA; R236H mutant still binds", "details": "tags: His tag N-terminal (pET14b, E. coli BL21 DE3); label: 32P", "experimental": "as §1"}, "ICE1 [2]": {"biological_target": "T1, ICE1", "experiment": "EMSA; several complexes; weaker competitor than MYC-2", "details": "tags: His tag N-terminal (pET14b, E. coli BL21 DE3); label: 32P", "experimental": "(§2) For competition experiments, unlabeled competitors were incubated with the His-ICE1 fusion protein on ice for 30 min prior to the addition of labeled probes.\n(§3) ICE1 has a basic helix-loop-helix (bHLH) domain and its amino acid sequence in the basic region is highly conserved with other bHLH proteins (FIG. 4B), and therefore may recognize promoter elements similar to the DNA-binding sites for known bHLH proteins. These proteins recognize DNA with the consensus sequence CANNTG (Meshi and Iwabuchi 1995). In the promoter region of CBF3, there are five potential MYC-recognition elements within a 1 kb region upstream of the transcription initiation site (Shinwari et al. 1998). These possible MYC-recognition sites, designated MYC-1 through MYC-5, fall into four groups because MYC-3 and MYC-5 share the same consensus sequence, CATTTG (FIG. 6A). Thus, MYC-3 was used to represent both MYC-3 and MYC-5. To determine whether ICE1 binds to these MYC-recognition sites in the CBF3 promoter, we expressed and purified His-ICE1 fusion protein from E. coli. Four DNA fragments encompassing each possible MYC-recognition site were used for interaction with His-ICE1 in an electrophoresis mobility shift assay (EMSA).\n(§4) The MYC-2 fragment formed one major complex with ICE1, while the other DNA fragments formed several complexes with ICE1. […]"}, "ICE1 [3]": {"biological_target": "T1, ICE1", "experiment": "EMSA; several complexes; weaker competitor than MYC-2; also represents MYC-5", "details": "tags: His tag N-terminal (pET14b, E. coli BL21 DE3); label: 32P", "experimental": "as §2, §3, §4"}, "ICE1 [4]": {"biological_target": "T1, ICE1", "experiment": "competition; unlabeled non-related competitor does not compete; 50-250 fold excess", "details": "tags: His tag N-terminal (pET14b, E. coli BL21 DE3)", "experimental": "as §1"}, "ICE1 [5]": {"biological_target": "T1, ICE1", "experiment": "competition; unlabeled competitor with putative MYB site does not compete; 50-250 fold excess", "details": "tags: His tag N-terminal (pET14b, E. coli BL21 DE3)", "experimental": "as §1"}},
  "note": "Substitutions are numbered along the chain they refer to.",
  "data": [
    {"binder": "B1", "values": [
      {"measurement": "binding result", "setting": "ICE1 [1]", "result": "binds"},
      {"measurement": "binding result", "setting": "ice1 (R236H)", "result": "binds"}
    ]},
    {"binder": "B2", "values": [
      {"measurement": "binding result", "setting": "ICE1 [2]", "result": "binds"}
    ]},
    {"binder": "B3", "values": [
      {"measurement": "binding result", "setting": "ICE1 [3]", "result": "binds"}
    ]},
    {"binder": "B4", "values": [
      {"measurement": "binding result", "setting": "ICE1 [2]", "result": "binds"}
    ]},
    {"binder": "B5", "values": [
      {"measurement": "binding result", "setting": "ICE1 [4]", "result": "no binding"}
    ]},
    {"binder": "B6", "values": [
      {"measurement": "binding result", "setting": "ICE1 [5]", "result": "no binding"}
    ]}
  ]
}
